Positions of bridges follow the written chain, without caps; N, C: chain ends. No end group written: not given here. *: point of attachment. NHNH2 = NN*
How the values were obtained:
[1] = target: REFACTO® (recombinant factor VIII-like polypeptide consisting of amino acids 1-743 and 1638 through 2332 of human factor VIII) (human) (UniProt P00451); assay: phage ELISA, phage isolate on factor VIII target, anti-M13-HRP
[2] = target: REFACTO® (recombinant factor VIII-like polypeptide consisting of amino acids 1-743 and 1638 through 2332 of human factor VIII) (human) (UniProt P00451); assay: phage ELISA, with target against without target
[3] = target: REFACTO® (recombinant factor VIII-like polypeptide consisting of amino acids 1-743 and 1638 through 2332 of human factor VIII) (human) (UniProt P00451); assay: affinity column, peptide on Toyopearl Formyl 650-M; target in fraction by activity assay
[4] = target: native human factor VIII (nhfVIII) (human) (UniProt P00451); assay: batch binding to regenerated peptide beads; target in fraction by sandwich ELISA
native human factor VIII (nhfVIII) (human), sequence (P00451 20-2351): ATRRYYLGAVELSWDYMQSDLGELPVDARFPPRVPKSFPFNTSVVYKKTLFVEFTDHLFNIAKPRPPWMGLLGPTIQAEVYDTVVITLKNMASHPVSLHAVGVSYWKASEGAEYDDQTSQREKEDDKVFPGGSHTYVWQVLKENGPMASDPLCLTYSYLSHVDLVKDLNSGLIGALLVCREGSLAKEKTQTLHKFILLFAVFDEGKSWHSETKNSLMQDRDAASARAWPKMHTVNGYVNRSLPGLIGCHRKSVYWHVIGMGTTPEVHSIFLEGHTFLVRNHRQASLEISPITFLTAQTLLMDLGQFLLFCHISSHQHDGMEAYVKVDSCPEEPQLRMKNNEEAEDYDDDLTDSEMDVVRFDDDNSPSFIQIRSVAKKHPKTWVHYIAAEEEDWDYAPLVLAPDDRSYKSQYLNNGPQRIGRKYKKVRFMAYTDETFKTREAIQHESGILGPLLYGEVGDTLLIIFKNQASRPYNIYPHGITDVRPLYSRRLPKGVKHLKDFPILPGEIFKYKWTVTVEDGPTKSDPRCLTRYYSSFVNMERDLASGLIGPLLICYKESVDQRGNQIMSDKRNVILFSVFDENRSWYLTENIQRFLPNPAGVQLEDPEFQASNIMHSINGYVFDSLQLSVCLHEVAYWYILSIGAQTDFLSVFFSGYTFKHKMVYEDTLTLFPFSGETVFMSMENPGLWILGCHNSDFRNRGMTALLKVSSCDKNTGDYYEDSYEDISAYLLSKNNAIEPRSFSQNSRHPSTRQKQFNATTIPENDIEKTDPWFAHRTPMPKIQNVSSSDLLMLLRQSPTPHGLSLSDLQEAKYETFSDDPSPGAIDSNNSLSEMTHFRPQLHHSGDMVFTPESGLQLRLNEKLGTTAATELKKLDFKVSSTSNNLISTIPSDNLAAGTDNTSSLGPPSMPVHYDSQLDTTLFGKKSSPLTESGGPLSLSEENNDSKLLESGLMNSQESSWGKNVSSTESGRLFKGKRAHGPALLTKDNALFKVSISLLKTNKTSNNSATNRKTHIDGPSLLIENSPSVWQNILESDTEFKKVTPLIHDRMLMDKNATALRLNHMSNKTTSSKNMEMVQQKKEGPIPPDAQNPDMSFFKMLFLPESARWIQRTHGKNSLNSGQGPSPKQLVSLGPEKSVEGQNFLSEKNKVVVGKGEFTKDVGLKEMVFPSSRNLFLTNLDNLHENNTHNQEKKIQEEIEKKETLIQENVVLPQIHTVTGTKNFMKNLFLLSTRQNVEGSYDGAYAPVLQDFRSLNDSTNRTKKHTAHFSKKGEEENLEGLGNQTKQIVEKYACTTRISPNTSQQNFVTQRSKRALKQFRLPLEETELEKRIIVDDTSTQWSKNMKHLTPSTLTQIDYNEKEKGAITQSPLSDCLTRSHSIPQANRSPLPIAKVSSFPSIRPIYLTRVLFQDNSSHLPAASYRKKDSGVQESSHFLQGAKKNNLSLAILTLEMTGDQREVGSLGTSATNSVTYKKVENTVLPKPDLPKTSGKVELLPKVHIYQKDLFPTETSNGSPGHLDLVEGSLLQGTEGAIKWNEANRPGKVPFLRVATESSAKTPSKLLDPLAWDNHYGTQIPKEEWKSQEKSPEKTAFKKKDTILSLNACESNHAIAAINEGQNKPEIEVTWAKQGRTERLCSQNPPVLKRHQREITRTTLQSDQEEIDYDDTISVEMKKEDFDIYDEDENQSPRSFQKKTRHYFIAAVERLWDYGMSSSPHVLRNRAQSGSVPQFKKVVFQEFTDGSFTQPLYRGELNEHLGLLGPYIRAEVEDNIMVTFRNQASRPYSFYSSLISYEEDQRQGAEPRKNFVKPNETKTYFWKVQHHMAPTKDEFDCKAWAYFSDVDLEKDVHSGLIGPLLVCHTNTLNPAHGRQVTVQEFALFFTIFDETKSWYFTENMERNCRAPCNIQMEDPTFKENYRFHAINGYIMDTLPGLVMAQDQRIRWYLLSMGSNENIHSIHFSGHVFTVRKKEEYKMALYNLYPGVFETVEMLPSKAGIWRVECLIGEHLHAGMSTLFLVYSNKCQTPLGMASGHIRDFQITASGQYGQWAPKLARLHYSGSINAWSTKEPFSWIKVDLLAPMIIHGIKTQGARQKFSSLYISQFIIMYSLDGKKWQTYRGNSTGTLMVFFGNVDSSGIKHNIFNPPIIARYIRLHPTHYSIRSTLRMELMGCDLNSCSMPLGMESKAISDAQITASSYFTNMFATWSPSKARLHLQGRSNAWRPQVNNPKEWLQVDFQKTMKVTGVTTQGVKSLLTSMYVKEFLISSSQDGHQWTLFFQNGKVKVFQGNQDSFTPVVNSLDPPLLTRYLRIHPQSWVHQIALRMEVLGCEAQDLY

[5] = target: REFACTO® (recombinant factor VIII-like polypeptide consisting of amino acids 1-743 and 1638 through 2332 of human factor VIII) (human) (UniProt P00451); assay: batch binding to peptide beads; target in fraction by sandwich ELISA
[6] = target: REFACTO® (recombinant factor VIII-like polypeptide consisting of amino acids 1-743 and 1638 through 2332 of human factor VIII) (human) (UniProt P00451); assay: affinity column, peptide on Toyopearl Formyl 650-M; target in fraction by RP-HPLC
[7] = target: REFACTO® (recombinant factor VIII-like polypeptide consisting of amino acids 1-743 and 1638 through 2332 of human factor VIII) (human) (UniProt P00451); assay: batch binding to regenerated peptide beads; target in fraction by sandwich ELISA

REFACTO® (recombinant factor VIII-like polypeptide consisting of amino acids 1-743 and 1638 through 2332 of human factor VIII) (human), sequence (P00451 20-762, chain 1 of 2): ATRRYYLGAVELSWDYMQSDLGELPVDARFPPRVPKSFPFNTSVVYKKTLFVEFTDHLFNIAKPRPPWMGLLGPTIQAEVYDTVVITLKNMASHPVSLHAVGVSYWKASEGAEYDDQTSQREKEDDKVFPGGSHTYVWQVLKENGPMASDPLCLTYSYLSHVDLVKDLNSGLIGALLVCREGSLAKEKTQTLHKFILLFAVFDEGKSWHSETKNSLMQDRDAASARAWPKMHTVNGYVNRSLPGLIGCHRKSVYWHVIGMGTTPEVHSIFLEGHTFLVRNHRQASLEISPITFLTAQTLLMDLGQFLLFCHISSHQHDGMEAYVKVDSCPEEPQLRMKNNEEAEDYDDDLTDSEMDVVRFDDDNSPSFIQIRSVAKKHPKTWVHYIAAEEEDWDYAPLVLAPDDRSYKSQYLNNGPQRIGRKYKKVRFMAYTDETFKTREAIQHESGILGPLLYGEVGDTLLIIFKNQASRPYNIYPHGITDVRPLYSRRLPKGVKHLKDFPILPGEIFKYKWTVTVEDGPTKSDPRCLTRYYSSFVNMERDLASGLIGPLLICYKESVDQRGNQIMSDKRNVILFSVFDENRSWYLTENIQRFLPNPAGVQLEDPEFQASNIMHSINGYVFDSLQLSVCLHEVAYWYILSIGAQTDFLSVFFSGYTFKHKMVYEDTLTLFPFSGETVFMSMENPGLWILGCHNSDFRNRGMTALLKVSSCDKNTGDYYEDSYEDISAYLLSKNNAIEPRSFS
REFACTO® (recombinant factor VIII-like polypeptide consisting of amino acids 1-743 and 1638 through 2332 of human factor VIII) (human), sequence (P00451 1657-2351, chain 2 of 2): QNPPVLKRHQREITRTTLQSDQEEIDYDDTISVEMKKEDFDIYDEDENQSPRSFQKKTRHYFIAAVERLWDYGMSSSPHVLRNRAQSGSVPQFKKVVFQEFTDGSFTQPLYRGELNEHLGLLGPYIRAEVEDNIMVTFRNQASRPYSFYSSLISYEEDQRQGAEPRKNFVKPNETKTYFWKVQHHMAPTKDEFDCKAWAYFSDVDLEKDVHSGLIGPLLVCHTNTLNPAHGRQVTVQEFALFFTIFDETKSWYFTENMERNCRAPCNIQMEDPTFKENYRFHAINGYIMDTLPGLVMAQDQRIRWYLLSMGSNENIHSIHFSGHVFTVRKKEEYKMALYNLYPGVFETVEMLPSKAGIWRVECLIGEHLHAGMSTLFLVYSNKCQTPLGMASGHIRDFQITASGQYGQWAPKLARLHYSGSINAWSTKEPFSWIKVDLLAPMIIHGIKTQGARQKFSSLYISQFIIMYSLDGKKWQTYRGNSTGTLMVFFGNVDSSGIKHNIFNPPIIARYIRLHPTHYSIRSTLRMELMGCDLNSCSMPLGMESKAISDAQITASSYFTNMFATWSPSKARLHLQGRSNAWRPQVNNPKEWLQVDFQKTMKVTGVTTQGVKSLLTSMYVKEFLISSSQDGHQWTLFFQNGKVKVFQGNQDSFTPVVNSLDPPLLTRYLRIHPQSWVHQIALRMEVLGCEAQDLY

B1: TN7 isolate A06 (peptide)
peptide: HSCGSWLFPCFA
[1]
  ELISA signal: 0.5 OD630
[2]
  R (ratio of the ELISA score with target present to the ELISA score without target): 10

B2: TN8 isolate 02 (SEQ ID NO: 13) (peptide)
peptide: HPCGSWFNPCAH
[1]
  ELISA signal: 0.3 OD630
[2]
  R (ratio of the ELISA score with target present to the ELISA score without target): 8

B3: Affinity ligand CS-456 (peptide)
peptide: AEGTGDFGCSWLFPCPFDPGPEGGGS-NHNH2
modifications: disulfide 9-15 (inferred)
[3]
  % recovery, Elution A: 43%
  % recovery, Flow: 4.8%
[4]
  % of Total Recovered in Eluate: 16%
  % of Total Recovered in Unbound: 70%
  % of Total Recovered in Wash: 14%
[5]
  % of Input Recovered in Eluate: 24%
  % of Input Recovered in Unbound: 47%
  % of Input Recovered in Wash: 20%
[6]
  % recovery, Elution A: 44.8%
  % recovery, Elution B: 0%
  % recovery, Flow: 3.4%
  % recovery, pH2: 0%

B4: Affinity ligand CS-458 (peptide)
peptide: AEGTGDFCWVFAFDHCHDPGPEGGGS-NHNH2
modifications: disulfide 8-16 (inferred)
[3]
  % recovery, Elution A: 55.6%
  % recovery, Flow: 1.4%
[4]
  % of Total Recovered in Eluate: 39%
  % of Total Recovered in Unbound: 48%
  % of Total Recovered in Wash: 13%
[7]
  % of Total Recovered in Eluate: 27%
  % of Total Recovered in Unbound: 59%
  % of Total Recovered in Wash: 14%
[5]
  % of Input Recovered in Eluate: 47%
  % of Input Recovered in Unbound: 20%
  % of Input Recovered in Wash: 10%
[6]
  % recovery, Elution A: 54.3%
  % recovery, Elution B: 0%
  % recovery, Flow: 1.8%
  % recovery, pH2: 0%

B5: TN8 isolate 02 (SEQ ID NO: 14) (peptide)
peptide: HPCGSWFRPCFH
[1]
  ELISA signal: 0.7 OD630
[2]
  R (ratio of the ELISA score with target present to the ELISA score without target): 16

B6: TN7 isolate C5/G10 (peptide)
peptide: RLCSWVSPCSA
[1]
  ELISA signal: 0.5 OD630
[2]
  R (ratio of the ELISA score with target present to the ELISA score without target): 10

B7: TN7 isolate A08 (peptide)
peptide: FGCSWLFPCPF
[1]
  ELISA signal: 0.4 OD630
[2]
  R (ratio of the ELISA score with target present to the ELISA score without target): 8

B8: TN8 isolate 07 (SEQ ID NO: 15) (peptide)
peptide: HACGSWFRPCHA
[1]
  ELISA signal: 0.4 OD630
[2]
  R (ratio of the ELISA score with target present to the ELISA score without target): 6

B9: TN7 isolate D04 (peptide)
peptide: RLCSWISPCSA
[1]
  ELISA signal: 0.3 OD630
[2]
  R (ratio of the ELISA score with target present to the ELISA score without target): 6

B10: TN8 isolate 08 (SEQ ID NO: 20) (peptide)
peptide: HPCGAWLRPCYN
[1]
  ELISA signal: 1 OD630
[2]
  R (ratio of the ELISA score with target present to the ELISA score without target): 20

B11: TN8 isolate 10 (SEQ ID NO: 10) (peptide)
peptide: HPCGSWLRPCLH
[1]
  ELISA signal: 1 OD630
[2]
  R (ratio of the ELISA score with target present to the ELISA score without target): 16

B12: TN8 isolate 12 (SEQ ID NO: 17) (peptide)
peptide: HLCFAWFRPCDA
[1]
  ELISA signal: 0.4 OD630
[2]
  R (ratio of the ELISA score with target present to the ELISA score without target): 8

B13: TN8 isolate 04 (SEQ ID NO: 12) (peptide)
peptide: HPCGSWLHPCAA
[1]
  ELISA signal: 0.3 OD630
[2]
  R (ratio of the ELISA score with target present to the ELISA score without target): 6

B14: TN8 isolate 02 (SEQ ID NO: 16) (peptide)
peptide: HLCGAWFRPCDA
[1]
  ELISA signal: 0.4 OD630
[2]
  R (ratio of the ELISA score with target present to the ELISA score without target): 6

B15: TN8 isolate 11/G10 (SEQ ID NO: 21) (peptide)
peptide: HRCGSWLHPCLA
[1]
  ELISA signal: 0.3 OD630
[2]
  R (ratio of the ELISA score with target present to the ELISA score without target): 6

B16: TN9/1 isolate … (SEQ ID NO: 71) (peptide)
peptide: FCWVFAFDHCH
modifications: not fully specified (bridges); cysteine pairing not given here
[2]
  R (ratio of the ELISA score with target present to the ELISA score without target): 24

B17: TN9 isolate 09 (SEQ ID NO: 29) (peptide)
peptide: FCWVFPFQHCA
[1]
  ELISA signal: 1.1 OD630
[2]
  R (ratio of the ELISA score with target present to the ELISA score without target): 24

B18: TN9 isolate 03 (SEQ ID NO: 26) (peptide)
peptide: FCWVFNFSHCS
[1]
  ELISA signal: 1.1 OD630
[2]
  R (ratio of the ELISA score with target present to the ELISA score without target): 24

B19: TN9 isolate 12 (SEQ ID NO: 28) (peptide)
peptide: FCWVFPFNHCS
[1]
  ELISA signal: 1 OD630
[2]
  R (ratio of the ELISA score with target present to the ELISA score without target): 18

B20: TN9/1 isolate … (SEQ ID NO: 75) (peptide)
peptide: FCWVFNWVHCD
[2]
  R (ratio of the ELISA score with target present to the ELISA score without target): 14

B21: TN9 isolate 02 (SEQ ID NO: 27) (peptide)
peptide: FCWVFPFNHCD
[1]
  ELISA signal: 0.4 OD630
[2]
  R (ratio of the ELISA score with target present to the ELISA score without target): 8

B22: TN9/1 isolate … (SEQ ID NO: 77) (peptide)
peptide: FCWVFQFRHCH
[2]
  R (ratio of the ELISA score with target present to the ELISA score without target): 8

B23: TN9 isolate 01 (SEQ ID NO: 31) (peptide)
peptide: FCHVFNFVHCS
[1]
  ELISA signal: 0.5 OD630
[2]
  R (ratio of the ELISA score with target present to the ELISA score without target): 8

B24: TN9 isolate 06 (SEQ ID NO: 30) (peptide)
peptide: FCWVFPFHHCF
[1]
  ELISA signal: 0.3 OD630
[2]
  R (ratio of the ELISA score with target present to the ELISA score without target): 6

B25: TN8 isolate 01 (SEQ ID NO: 18) (peptide)
peptide: HGCGAWFRPCHA
[1]
  ELISA signal: 0.2 OD630

B26: TN8 isolate 01 (SEQ ID NO: 19) (peptide)
peptide: HPCGAWFNPCPR
[1]
  ELISA signal: 0.2 OD630

B27: TN9 isolate 02 (SEQ ID NO: 23) (peptide)
peptide: FCWVHPFAHCL
[1]
  ELISA signal: 0.2 OD630

B28: TN9 isolate 01 (SEQ ID NO: 24) (peptide)
peptide: FCHVFHFSHCD
[1]
  ELISA signal: 0.2 OD630

B29: TN9 isolate 11 (SEQ ID NO: 32) (peptide)
peptide: FCHVFPFLHCD
[1]
  ELISA signal: 0.2 OD630

B30: TN7 isolate D03 (peptide)
peptide: PHCNWLFPCSL
[1]
  ELISA signal: 0.2 OD630

B31: Affinity ligand CS-453 (peptide)
peptide: AEGTGDHPCGSWLRPCLHDPGPEGGGS-NHNH2
modifications: disulfide 9-16 (inferred)
[3]
  % recovery, Elution A: 26.4%
  % recovery, Flow: 0%
[6]
  % recovery, Elution A: 43.2%
  % recovery, Elution B: 0%
  % recovery, Flow: 0%
  % recovery, pH2: 0%

B32: Affinity ligand CS-454 (peptide)
peptide: AEGTGDHLCGAWFRPCDADPGPEGGGS-NHNH2
modifications: disulfide 9-16 (inferred)
[3]
  % recovery, Elution A: 42.4%
  % recovery, Flow: 2.2%
[4]
  % of Total Recovered in Eluate: 21%
  % of Total Recovered in Unbound: 67%
  % of Total Recovered in Wash: 12%
[5]
  % of Input Recovered in Eluate: 49%
  % of Input Recovered in Unbound: 24%
  % of Input Recovered in Wash: 12%
[6]
  % recovery, Elution A: 45.1%
  % recovery, Elution B: 0%
  % recovery, Flow: 2.5%
  % recovery, pH2: 0%

B33: Affinity ligand CS-455 (peptide)
peptide: AEGTGDFHCIGVWFCLHDPGPEGGGS-NHNH2
modifications: disulfide 9-15 (inferred)
[3]
  % recovery, Elution A: 1.3%
  % recovery, Flow: 61.6%
[6]
  % recovery, Elution A: 1.4%
  % recovery, Elution B: 0%
  % recovery, Flow: 65.8%
  % recovery, pH2: 0%

B34: TN7 isolate A09 (peptide)
peptide: FHCIGVWFCLH
[1]
  ELISA signal: 0.1 OD630

B35: Affinity ligand CS-459 (peptide)
peptide: AEGTGDFCWVFPFQHCADPGPEGGGS-NHNH2
modifications: disulfide 8-16 (inferred)
[3]
  % recovery, Elution A: 31.2%
  % recovery, Flow: 6.4%
[6]
  % recovery, Elution A: 42.1%
  % recovery, Elution B: 0%
  % recovery, Flow: 1.6%
  % recovery, pH2: 0%

B36: Affinity ligand CS-460 (peptide)
peptide: AEGTGDFCWVFPFHHCFDPGPEGGGS-NHNH2
modifications: disulfide 8-16 (inferred)
[3]
  % recovery, Elution A: 0%
  % recovery, Flow: 28.4%
[6]
  % recovery, Elution A: 28.8%
  % recovery, Elution B: 0%
  % recovery, Flow: 24.6%
  % recovery, pH2: 0%

B37: TN8 isolate 05 (SEQ ID NO: 11) (peptide)
peptide: RGCGSWLRPCLD
[1]
  ELISA signal: 0.2 OD630
